In PMC7659345, “Viral rhodopsins 1 are an unique family of light-gated cation channels” (Nature Communications, 2020):

What was measured:
Asp80 (position 80, …) = assay: UV-vis; settings: 10 mM citrate, 10 mM MES, 10 mM HEPES, 10 mM MOPS, 10 mM CHES and 10 mM CAPS. The pH was adjusted with HCl or NaOH in steps of 0.5-0.7 units.; Dark (ground) state with all-trans retinal bound; purified, solubilised protein
Asp76 (position 76, …) = assay: UV-vis; settings: 10 mM citrate, 10 mM MES, 10 mM HEPES, 10 mM MOPS, 10 mM CHES and 10 mM CAPS. The pH was adjusted with HCl or NaOH in steps of 0.5-0.7 units.; Dark (ground) state with all-trans retinal bound; purified, solubilised protein

Protein | pKa (Asp80 (position 80, …)) | pKa (Asp76 (position 76, …))
VirChR1 (viral channelrhodopsin 1, viral rhodopsin group 1) (uncultured virus (Tara Oceans metagenomic contig TARA-146-SRF-0.22-3-C376786_1)) (protein) MKDKELLLLTVKISLVVQIISGIVSSFGIFIKLAPKDYILRDILIIETVVQIVEAIFYVYIYLSLESLDNNVITSRRYFDWVITTPIMLISTILFMRYNIRILYDKSKNKQNRQNKPKSNLTTYNVIKNNKDTIIKIVIGNFIMLCFGYLGEVDILSKTISIPIGFIFFFYVFYLIWREFGSYTQQNQILFWVLFIVWGLYGVSACLPVLQKNICYNILDIISKNFYGLYIFYYIYQHRLVV | 3.5 | –
OLPVR1 (viral rhodopsin group 1, viral channelrhodopsin) (Organic Lake phycodnavirus) (protein) MDNIIMTAYISIFVQIITAIISVYGLFIPLNFKDIILREILILELIVQIIEFIFYIWLIITLQSINEDITYVRYFDWVLTTPVMLLTTVYFFEYMNSDDGIRKKEINDRDYVYLFYICLSNFFMLLIGYLGETKQINKMLTLFGGSFFLFLTFYLLYVKYTKENWMNYIVFYFMFLVWFLYGFAFMFPFSIKNQMYNILDIVSKNIYSIFIFIVILNQSYKLL | – | 4.8
